Test results reported in paper PMC9711875.

Target: CD177 (UniProt Q8N6Q3)
Test: SPR; Biacore T200; CD177 amine coupled to a CM5 chip (about 770 counts for kinetic measurements); PR3 or AAT as soluble analytes in 10 mM HEPES, 150 mM NaCl, 0.05% Tween20; 30 μL/minute; 25°C

B1: purified proteinase 3 (enzyme)
chain: IVGGHEAQPHSRPYMASLQMRGNPGSHFCGGTLIHPSFVLTAAHCLRDIPQRLVNVVLGAHNVRTQEPTQQHFSVAQVFLNNYDAENKLNDVLLIQLSSPANLSASVATVQLPQQDQPVPHGTQCLAMGWGRVGAHDPPAQVLQELNVTVVTFFCRPHNICTFVPRRKAGICFGDSGGPLICDGIIQGIDSFVIWGCATRLFPDFFTRVALYVDWIRSTLR
Kd: 20 nM
